This note sets out measurements from patent publication US20220220224A1 (Hoffmann-La Roche, published 2022).

Broadly, the koff is a measure of how fast the partners let go of each other. As a reminder, the kon is a measure of how fast the partners come together.

Assay [1] has as its target T1, human FolR1 expressed on cells (HeLa, SKOV3, HT-29, transfected HEK cells) (human, UniProt P15328 25-234).
T1 construct: whole, on cells; also called FolR1 on HeLa cells; human FolR1 on cells
The experiment in a line: flow cytometry on HeLa cells. Background: A flow cytometer gives signals particle by particle.

The target of assay [2] is T2, recombinant biotinylated monomeric Fc fusion of human Folate Receptor 1 (huFolR1 ECD-AcTev-Fcknob-Avi tag … (human, UniProt P0DOX5 223-449 = IgG part, biotin on the C-terminal Avi tag)).
T2 construct: also called huFolR1-Fc; human FolR1-Fc
Description: SPR Biacore, single injection on immobilized antigen-Fc. The essentials: (§1)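 Biacore T200 at 25 °C in HBS-EP (HEPES pH 7.4). Biotinylated FolR-Fc fusions captured on SA chip at about 300-400 RU. IgGs injected once at 500 nM for 60 s to assess cross-reactivity and specificity.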
On the technique in general: SPR reads the build-up and loss of mass on a sensor chip optically.

Assay [3] deals with T3, recombinant biotinylated monomeric Fc fusion of human Folate Receptor 2 (hu FolR2 ECD-AcTev-Fcknob-Avi tag … (human, UniProt P0DOX5 223-449 = IgG part, biotin on the C-terminal Avi tag)).
T3 construct: also called FolR2-Fc
Described as above. An outline of the steps:
as §1

The target in assay [4] is T4, recombinant biotinylated monomeric Fc fusion of human Folate Receptor 3 (hu FolR3 ECD-AcTev-Fcknob-Avi tag … (human, UniProt P0DOX5 223-449 = IgG part, biotin on the C-terminal Avi tag)).
T4 construct: also called FolR3-Fc
The description is as above. The essentials:
as §1

Assay [5] concerns the target T5, recombinant biotinylated monomeric Fc fusion of cynomolgus Folate Receptor 1 (cy FolR1 ECD-AcTev-Fcknob-Avi … (cynomolgus, UniProt P0DOX5 223-449 = IgG part, biotin on the C-terminal Avi tag)).
T5 construct: also called cyFolR1-Fc; cyno FolR1
The assay is described as above. An outline of the steps: as §1

Assay [6] concerns the target T2, recombinant biotinylated monomeric Fc …. The experiment in a line: SPR Biacore, affinity (monovalent), antibody captured via anti-Fab. The method, then: (§2) The affinity of the interaction between the anti-FolR1 IgGs or the T cell bispecifics and the recombinant folate receptors was determined as described below (Table 39).
(§3) For affinity measurement, direct coupling of around 10000 resonance units (RU) of the anti-human Fab specific antibody (Fab capture kit, GE Healthcare) was performed on a CM5 chip at pH 5.0 using the standard amine coupling kit (GE Healthcare). Anti-FolR1 IgGs or T cell bispecifics were captured at 20 nM with a flow rate of 10 μl/min for 40 sec, the reference flow cell was left without capture. Dilution series (12.35 to 3000 nM) of human and cyno Folate Receptor 1 Fc fusion were passed on all flow cells at 30 μl/min for 240 sec to record the association phase. The dissociation phase was monitored for 300 s and triggered by switching from the sample solution to HBS-EP. The chip surface was regenerated after every cycle using a double injection of 60 sec 10 mM Glycine-HCl pH 1.5. Bulk refractive index differences were corrected for by subtracting the response obtained on the reference flow cell 1. The affinity constants for the interactions were derived from the rate constants by fitting to a 1:1 Langmuir binding using the Bia Evaluation software (GE Healthcare).

For assay [7], the target named is T5, recombinant biotinylated monomeric Fc …. The description is as above. The method, then:
as §2, §3

Assay [8] deals with T6, recombinant biotinylated monomeric Fc fusion of murine Folate Receptor 1 (mu FolR1 ECD-AcTev-Fcknob-Avitag … (murine, UniProt P0DOX5 223-449 = IgG part, biotin on the C-terminal Avi tag)).
T6 construct: also called muFolR1-Fc; murine FolR1
Description: SPR Biacore, avidity set-up, antigen-Fc on SA chip. The method, then:
(§4) The avidity of the interaction between the anti-FolR1 IgGs or T cell bispecifics and the recombinant folate receptors was determined as described below (Table 38).
(§5) Recombinant biotinylated monomeric Fc fusions of human, cynomolgus and murine Folate Receptor 1 (FolR1-Fc) were directly coupled on a SA chip using the standard coupling instruction (Biacore, Freiburg/Germany). The immobilization level was about 160. The anti-FolR1 IgGs or T cell bispecifics were passed at a concentration range from 3.7 to 900 nM with a flow of 30 μL/minutes through the flow cells over 180 seconds. The dissociation was monitored for 600 seconds. Bulk refractive index differences were corrected for by subtracting the response obtained on reference flow cell immobilized with recombinant biotinylated murine IL2 receptor Fc fusion. The binding curves resulting from the bivalent binding of the IgG or T cell bispecifics were approximated to a 1:1 Langmuir binding (even though it is a 1:2 binding) and fitted with that model to get an apparent KD representing the avidity of the bivalent binding. The apparent avidity constants for the interactions were derived from the rate constants of the fitting using the Bia Evaluation software (GE Healthcare).

Assay [9] concerns the target T2, recombinant biotinylated monomeric Fc …. The experiment in a line: SPR Biacore, avidity (bivalent, apparent KD), antigen-Fc on SA chip. As for the experimental part:
as §4, §5

Assay [10] concerns the target T5, recombinant biotinylated monomeric Fc …. The assay is described as above. The method, then:
as §4, §5

In assay [11] the target is T1, human FolR1 expressed on cells (HeLa, …). The experiment in a line: flow cytometry on transfected HEK cells.
The target in assay [12] is T7, human FolR2 on transfected HEK cells (human, UniProt P14207 17-230).
T7 construct: whole, on cells
T7 sequence (P14207 17-230): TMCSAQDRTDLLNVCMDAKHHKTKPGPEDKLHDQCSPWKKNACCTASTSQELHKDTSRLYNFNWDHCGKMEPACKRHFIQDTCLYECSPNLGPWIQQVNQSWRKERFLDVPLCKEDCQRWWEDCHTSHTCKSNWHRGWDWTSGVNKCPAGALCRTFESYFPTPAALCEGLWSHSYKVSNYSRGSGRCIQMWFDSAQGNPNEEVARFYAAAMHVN
Description: flow cytometry on transfected HEK cells.

For assay [13], the target named is T6, recombinant biotinylated monomeric Fc …. Description: SPR Biacore, single injection on immobilized antigen-Fc. The essentials:
as §1

T1 sequence (P15328 25-234): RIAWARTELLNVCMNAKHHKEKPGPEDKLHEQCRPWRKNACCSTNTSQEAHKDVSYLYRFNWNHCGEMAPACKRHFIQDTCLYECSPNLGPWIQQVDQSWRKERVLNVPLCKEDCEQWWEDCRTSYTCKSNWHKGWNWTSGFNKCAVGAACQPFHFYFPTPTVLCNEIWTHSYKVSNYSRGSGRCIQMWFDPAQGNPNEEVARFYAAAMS

B1: 14E4 IgG (antibody, V domains shown)
VH: not shown
VL: EIVLTQSPGTLSLSPGERATLSCRASQSVSSSYLAWYQQKPGQAPRLLIYGASSRATGIPDRFSGSGSGTDSTLTISRLEPEDFAVYYCQQPTSSPITFGQGTKVEIK
notes: human IgG1
Turning to B1, the binding result in assay [1] is reported as “no binding”; in assay [2] it was “no binding (tested: 500 nM)”; in [3], “no binding (tested: 500 nM)”; in [4], “no binding (tested: 500 nM)”; in [5] it was “no binding (tested: 500 nM)”.

B2: 16D5 D52dE IgG (antibody, V domains shown)
VH: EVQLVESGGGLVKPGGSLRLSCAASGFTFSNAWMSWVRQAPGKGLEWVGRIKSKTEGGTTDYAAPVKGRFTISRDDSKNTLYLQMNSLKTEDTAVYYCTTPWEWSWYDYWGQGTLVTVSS
VL: QAVVTQEPSLTVSPGGTVTLTCGSSTGAVTTSNYANWVQEKPGQAFRGLIGGTNKRAPGTPARFSGSLLGGKAALTLSGAQPEDEAEYYCALWYSNLWVFGGGTKLTVL
notes: IgG
In the case of B2, the Kd was determined as 95 nM in [6], 530 nM in [7], 3.4 nM in assay [9] and 2.5 nM in assay [10]. Further, the koff in assay [6] came to 0.00227 s⁻¹; in assay [7], 0.012 s⁻¹; in assay [9] it was 0.000545 s⁻¹; in [10] it was 0.00747 s⁻¹. For the same molecule, the kon was found to be 24000 M⁻¹ s⁻¹ in assay [6], 22500 M⁻¹ s⁻¹ in assay [7], 162000 M⁻¹ s⁻¹ in assay [9] and 2.98e+06 M⁻¹ s⁻¹ in assay [10]. For the same molecule, the binding result in [8] is given as “no binding”.

B3: 16D5 D52dQ IgG (antibody, V domains shown)
VH: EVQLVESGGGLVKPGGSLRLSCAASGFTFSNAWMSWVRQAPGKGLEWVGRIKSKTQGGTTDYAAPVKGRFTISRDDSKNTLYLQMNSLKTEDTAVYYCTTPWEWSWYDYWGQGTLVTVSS
VL: QAVVTQEPSLTVSPGGTVTLTCGSSTGAVTTSNYANWVQEKPGQAFRGLIGGTNKRAPGTPARFSGSLLGGKAALTLSGAQPEDEAEYYCALWYSNLWVFGGGTKLTVL
notes: IgG
In the case of B3, the Kd came out at 230 nM in assay [6], 410 nM in [7], 9.2 nM in assay [9] and 5 nM in [10]. Besides, the koff in assay [6] was 0.00162 s⁻¹; in assay [7], 0.00332 s⁻¹; in assay [9], 0.000775 s⁻¹; in [10], 0.00204 s⁻¹. Further, the on-rate constant (kon) worked out at 6970 M⁻¹ s⁻¹ in [6], 8200 M⁻¹ s⁻¹ in assay [7], 84000 M⁻¹ s⁻¹ in assay [9] and 412000 M⁻¹ s⁻¹ in assay [10]. Also, the binding result in assay [8] was “no binding”.

B4: 9D11 IgG (antibody, V domains shown)
VH: QVQLVQSGAEVKKPGASVKVSCKASGYTFTSYYMHWVRQAPGQGLEWMGIINPSGGPTSYAQKFQGRVTMTRDTSTSTVYMELSSLRSEDTAVYYCARGDFAWLDYWGQGTLVTVSS
VL: not shown
notes: human IgG1
As for B4, the binding result was “binds” in assay [11]; “no binding” in assay [12]; “no binding (tested: 500 nM)” in assay [13]; “no binding (tested: 500 nM)” in assay [3]; “no binding (tested: 500 nM)” in assay [4].
